{
  "source": "paper doi:10.1101/2024.11.13.623522",
  "about": "(bioRxiv, 2024)",
  "binders": {"B1": {"name": "FLAG-tagged Armi S769I mutant, recombinant (natural protein, Drosophila, UniProt Q6J5K9 1-1188, looked up)", "chain": "MFTYVSKFFTNPDRNREDILESLDRENSFLDQKLMEEKMDQQLKANPNEINGVLSNKIAELTHGLSEMDVSKESSCTARKGVITSLDGDRGVIDKDVLFETKVAEDIILDLHVGCVVEYLTFTTGEAMRVVKVKSILEHSWEDTSQKEIEKAVDNLKNEKPTFFNTETRSVLGLISQRLASSIDVETEYGQLTVELDNIEMNFIPTNGDRVRLECNIQLDDGFVDKQGEILEVTKLFPTRIQEGEKCIVERVYVHMVVLGPETYILKTDLPTGTDLHLGDIVLADLIECQYSKFTRRAIKITPLEKNFGATKLTQQSSMGSSGSGKAVTVTGVNRFITAELWQKESVSLKLTNNLNRTLRLESITVCNDSESQLSVVSPLESKEISSGSEITVTFEIHTQFLGEAIEKYVLNFDLLKVRRVFTVIVCKTKEEVAEAEKRMIAAEALMAPGRNSQERSRFYANQVWCNKVDVIPGQQIVTKRRFVALRLGCFEVPKELRQICLTSERRQEMIKAIEQHYSFLTEPLSIKTYMHRFRLLLHLEEIECFVNFRNYDRDRAHFLRDGEFLTLQIENLAERRPSLVIGDTLRVINPWSDPDSQTTKSYEGIIHKVLFDRILLKFHSSFQEKYNGEDYRLEFYFSRYSFRKQHHAISKIVGVMGEDFLFPSKVTKRENPQLDVYMKDDDMYLYDSKLEWYNQSLNSIQKRAVFNILRGEAENIPYVLFGPPGSGKTMTLIETLLQLVRNLPGARILVGTPSNSSADLVTKRLIDIKALLQGDFIRLVSYNQVEKDLIPPEIMSYCATSDVGAVGSCEDKMMVTESGLKLRCQAKFIGTHRITISTCTTLGNFLQLGFPAGHFTHVLFDEAGQCTEPETMVPIVMLTKKRSQVVLSGDPRQLQSIVTSRIASKMGFSISFLERLLERSPYRKDLQRFPESSGYNPLVLTKLLYNYRALPSIMSIYSRLFYDDELIPVLSEKDSRESRLLSKLRCVFESEKDIPQAHGTFFYGIIGENRQNNDSPSWFNPQEVREVFLMTIALYRANVTADQIGIITPYQKQVKMLRSMFIGTDVVMPKIGSVEEFQGQERDIILISTVRSSEEILRMDARFSLGFVRCSKRLNVAVSRARAMMIIFGNPHLLAVDECWRQLILFCVKNNAYFGCDLPQMVINQKDEVPVCLETFVPSLNTTDDLN"}},
  "molecular_target": "T1, GST-tagged Shu (Shu-GST) (Drosophila, UniProt Q9W1I9 1-455)",
  "T1 sequence (looked up)": "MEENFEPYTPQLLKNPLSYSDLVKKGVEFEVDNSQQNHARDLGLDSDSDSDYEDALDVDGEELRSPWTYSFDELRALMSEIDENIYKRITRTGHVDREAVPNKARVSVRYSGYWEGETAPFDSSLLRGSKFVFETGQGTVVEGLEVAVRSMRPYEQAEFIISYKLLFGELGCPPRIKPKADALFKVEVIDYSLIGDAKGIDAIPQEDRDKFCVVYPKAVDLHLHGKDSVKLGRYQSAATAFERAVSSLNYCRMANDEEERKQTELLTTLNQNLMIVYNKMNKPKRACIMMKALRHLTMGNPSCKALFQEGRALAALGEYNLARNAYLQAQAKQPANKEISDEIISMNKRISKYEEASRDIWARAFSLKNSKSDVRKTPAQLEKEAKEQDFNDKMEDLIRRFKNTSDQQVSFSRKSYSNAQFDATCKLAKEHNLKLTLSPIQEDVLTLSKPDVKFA",
  "assay": "pull-down",
  "data": [
    {"binder": "B1", "values": [
      {"measurement": "pull-down efficiency relative to Armi WT", "value": "~1.5", "unit": "fold"}
    ]}
  ]
}
